Our source for the stoichiometry N and K0.5 values is PMC5984625, “Dynamic structural states of ClpB involved in its disaggregation function” (Nature Communications, 2018).

Values joined by “and” are separate entries in the source; they are usually repeats but may differ in a detail not shown here. Equal values may be shown once.

Series [1] deals with N-terminal deletion mutant of TClpB (ΔN-TClpB) (Thermus thermophilus). In words: AUC; sedimentation velocity, 20 °C, 42,000 rpm, 50 mM MOPS pH 7.5, 50 mM KCl, 5 mM MgCl2, 0.5 and 2.0 mg/mL protein, with 20 mM ADP (preincubated 55 °C 1 min).
Series [2] has the same target. In words: AUC; sedimentation velocity, 20 °C, 42,000 rpm, 50 mM MOPS pH 7.5, 50 mM KCl, 5 mM MgCl2, 0.5 and 2.0 mg/mL protein, with 20 mM ATP (preincubated 55 °C 1 min).
For series [3] the target is unchanged. The series can be described thus: AUC; sedimentation velocity, 20 °C, 42,000 rpm, 50 mM MOPS pH 7.5, 50 mM KCl, 5 mM MgCl2, 0.5 and 2.0 mg/mL protein, with 2 mM ATPγS (preincubated 55 °C 1 min).
Series [4] has the same target. The series can be described thus: native MS; incubated at 55 °C with 2 mM ATP or ATPγS for 1 min, exchanged into 150 mM ammonium acetate pH 7.5 with 100 µM ATP or ATPγS at 4 °C; nanoflow electrospray.
Series [5] has the same target. The series can be described thus: high-speed atomic force microscopy (HS-AFM); self-association; sample preincubated with 2 mM ATP at 55 °C for 1 min, adsorbed on bare mica, imaged at 25 °C in 50 mM MOPS pH 7.5, 20 mM KCl, 5 mM MgCl2 with ATP (10 μM to 2 mM for ΔN-TClpB, 0.5 mM for full length, 1 mM for the mutants; also 1 mM ATPγS or ADP).
Series [6] deals with T1, Nc1ncnc2c1ncn2[C@@H]1O[C@H](COP(=O)(O)OP(=O)(O)OP(=O)(O)O)[C@@H](O)[C@H]1O.
T1 construct: N-terminal domain deletion (AAA1, M-domain and AAA2 kept); from plasmid pMCB1; expressed in E. coli BL21(DE3) or KRX; purified; hexamer and smaller oligomers
The series can be described thus: purified protein. It is filed as biochemical, Thermus thermophilus. Conditions: Hill equation fit, Hill coefficient 2.6 ± 0.6, pH 7.5, 20 mM KCl, 5 mM MgCl2, 25 °C.

The target in series [7] is ΔN-TClpB hyperactive mutant Y494D (Thermus thermophilus). The series can be described thus: high-speed atomic force microscopy (HS-AFM); self-association; sample preincubated with 2 mM ATP at 55 °C for 1 min, adsorbed on bare mica, imaged at 25 °C in 50 mM MOPS pH 7.5, 20 mM KCl, 5 mM MgCl2 with ATP (10 μM to 2 mM for ΔN-TClpB, 0.5 mM for full length, 1 mM for the mutants; also 1 mM ATPγS or ADP).

In series [8] the target is ΔN-TClpB repressed mutant E423A (Thermus thermophilus). The series is described as above.

Chain of ΔN-TClpB (Thermus thermophilus HB8) (chain, as listed by the source mutant): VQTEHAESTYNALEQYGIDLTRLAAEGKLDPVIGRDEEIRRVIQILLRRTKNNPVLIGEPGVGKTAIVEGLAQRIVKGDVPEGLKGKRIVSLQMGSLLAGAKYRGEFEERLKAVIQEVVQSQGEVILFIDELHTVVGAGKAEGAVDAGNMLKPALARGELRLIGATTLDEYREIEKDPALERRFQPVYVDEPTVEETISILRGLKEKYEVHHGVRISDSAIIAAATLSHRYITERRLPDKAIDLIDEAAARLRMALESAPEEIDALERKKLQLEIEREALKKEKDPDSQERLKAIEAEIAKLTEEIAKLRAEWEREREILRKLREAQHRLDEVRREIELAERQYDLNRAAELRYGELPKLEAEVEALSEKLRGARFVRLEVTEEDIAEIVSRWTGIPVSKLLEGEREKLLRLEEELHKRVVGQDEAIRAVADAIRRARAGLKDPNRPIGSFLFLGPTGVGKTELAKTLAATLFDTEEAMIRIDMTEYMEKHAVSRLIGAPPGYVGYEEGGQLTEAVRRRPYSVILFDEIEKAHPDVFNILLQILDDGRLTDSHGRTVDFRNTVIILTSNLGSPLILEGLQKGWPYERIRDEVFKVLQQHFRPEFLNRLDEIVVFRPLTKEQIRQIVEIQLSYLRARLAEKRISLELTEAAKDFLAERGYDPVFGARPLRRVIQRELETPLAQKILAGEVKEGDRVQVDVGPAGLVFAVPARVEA

With “N-terminal deletion mutant of TClpB (ΔN-TClpB) (domain or fragment)”, the stoichiometry N in series [1] was less than 6; in series [2], 6 and 3; in series [3], 6; in series [4], 2 and 6; in series [5], 6 and 3 to 8 (2×).

ΔN-TClpB (Thermus thermophilus HB8) had a K0.5 in series [6] of 0.16 ± 0.02 mM.

In series [7], “ΔN-TClpB hyperactive mutant Y494D (domain or fragment)” gave a stoichiometry N of 6.

Substance “ΔN-TClpB repressed mutant E423A (domain or fragment)” returned a stoichiometry N in series [8] of 6.
